Source: patent publication US20160250307A1

How the values were obtained:
HLA-A*24 (human) [1] = assay: UV-ligand exchange, anti-b2m ELISA; grade: exchange yield >=75%
HLA-A*02 (human) = assay: UV-ligand exchange, anti-b2m ELISA; grade: exchange yield >=50%
HLA-A*24 (human) [2] = assay: as above

peptide exchange yield (HLA-A*24 (human) [1]) [%]	Binder	also measured
> 75	SYNPAENAVLL	–
> 75	AYPAIRYLL	–
> 75	RYSAGWDAKF	–
> 75	DYIPYVFKL	–
> 75	IYTGNISSF	–
> 75	RYNEKCFKL	–
> 75	IYIPSYFDF	–
> 75	VYGDVISNI	–
> 75	LYWSHPRKF	–
> 75	IYVTSIEQI	–
> 75	IYPGAFVDL	–
> 75	YYNKVSTVF	–
> 75	KFVTVQATF	–
> 75	RYAPPPSFSEF	–
> 75	IYADVGEEF	–
> 75	VYQGAIRQI	–
> 75	VYGLQRNLL	–

The remaining lines, values behind:

Binder	peptide exchange yield (HLA-A*24 (human) [1]) [%]	also measured
ALDSGAFQSV (modifications not checked)	–	peptide exchange yield (HLA-A*02 (human)): 50 to 75%
AYVNTFHNI	> 75	–
KWPETPLLL	> 75	–
YYGILQEKI	> 75	–
IYLERFPIF	> 75	–
AYLKWISQI	> 75	–
AYGTYRSNF	> 75	–
VFHPRQELI	–	peptide exchange yield (HLA-A*24 (human) [2]): 50 to 75%
KYPDIISRI	> 75	–
AYLLQPSQF	> 75	–
RWPKKSAEF	> 75	–
SYITKPEKW	> 75	–
AFSPDSHYLLF	–	peptide exchange yield (HLA-A*24 (human) [2]): 50 to 75%
SYPTFFPRF	> 75	–
